In assay [1] the target is CS40 anti-ManLAM monoclonal antibody. Description: competitive ELISA, ManLAM-coated plate, CS40 (1:2000) mixed with peptide. In general terms: ELISA stands for enzyme-linked immunosorbent assay.
The target is the same in assay [2]. Description: competitive ELISA, ManLAM-coated plate, CS40 (1:2000) mixed with peptide; at 50 µg/ml peptide.

ISLTEWSMWYRH [B11 synthetic peptide]: the peptide concentration giving 100% decrease in OD in assay [1] amounted to 50 µg/mL. Also, the decrease in OD (inhibition of CS40 binding to ManLAM) in assay [2] stood at 100%.

Values taken from patent US20080318868A1.
